According to paper PMC9891163 (Drug Delivery, 2023):

Test: Aqueous dispersibility of the peptide-lipid conjugate
Assay type: physicochemical

(Dipalmitoyl)lysine-KSS-(SG)5-ApoEdp [ApoEdp-SG-lipid]
Aqueous dispersibility: excellent aqueous dispersibility
